Measured values: the supplement of paper PMC7125110
± gives the standard error. For part of these data: This sample holds only a part of the variants without activity.

B1: glmS ribozyme (parent)
chain: AUAAAAGCGCCAGAACUACAGAAAUGUAGUUGACGAGGAGGAGGUUUAUCGAAUUUUCGGCGGAUGCCUCCAAA

Assays:
Conditions in all cases: with glucosamine-6-phosphate
[1] = variants of: B1; assay: kcat; higher = faster cleavage; RNA array
How it was run: (§1)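 Glucosamine-6-phosphate in HEPES/KCl/Mg(OAc)2 buffer, at 40 μM to 10 mM, was flowed over barcoded ribozyme variants transcribed in situ by E. coli RNA polymerase on sequenced MiSeq chips. Tracking was through a hybridised Cy3 probe at 37 °C. kobs, kcat and KM came from exponential decay fits and weighted Michaelis–Menten fits of normalised per-tile medians.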

[2] = variants of: B1; assay: KM; higher = weaker cofactor use; RNA array
How it was run: as §1

[3] = variants of: B1; assay: self-cleavage kobs at 40 uM GlcN6P; higher = faster cleavage; RNA array
How it was run: as §1

[4] = variants of: B1; assay: self-cleavage kobs at 640 uM GlcN6P; higher = faster cleavage; RNA array
How it was run: as §1

[5] = variants of: B1; assay: self-cleavage kobs at 2500 uM GlcN6P; higher = faster cleavage; RNA array
How it was run: as §1

[6] = variants of: B1; assay: self-cleavage kobs at 10000 uM GlcN6P; higher = faster cleavage; RNA array
How it was run: as §1

[7] = variants of: B1; assay: self-cleavage kobs at 160 uM GlcN6P; higher = faster cleavage; RNA array
How it was run: as §1

Row | Variant | kcat [1] [s⁻¹] | KM [2] [µM] | self-cleavage kobs at 40 uM GlcN6P [3] [s⁻¹] | self-cleavage kobs at 640 uM GlcN6P [4] [s⁻¹] | self-cleavage kobs at 2500 uM GlcN6P [5] [s⁻¹] | self-cleavage kobs at 10000 uM GlcN6P [6] [s⁻¹] | self-cleavage kobs at 160 uM GlcN6P [7] [s⁻¹]
1 | U30A U54C | 0.00409 ± 0.0013 | 1040 ± 490 | 0.000151 ± 2.1e-05 | 0.00174 ± 0.00027 | 0.00215 ± 0.00045 | 0.00543 ± 0.001 | –
2 | U30C G40A | 9.74e-05 ± 1.5e-05 | 3260 ± 1400 | < 1e-05 | – | 4.56e-05 ± 1.3e-05 | 7.27e-05 ± 1.2e-05 | –
3 | U30C G40C | 4.04e-05 ± 5.2e-06 | – | – | – | 2.58e-05 ± 1.2e-05 | 3.87e-05 ± 1.2e-05 | –
4 | C16A C50A | < 1e-05 | – | – | – | – | – | –
5 | U31C G66A | 0.00283 ± 0.00065 | 2030 ± 750 | 6.95e-05 ± 9.4e-06 | 0.000724 ± 8.4e-05 | 0.00127 ± 0.00017 | 0.00266 ± 0.00027 | 0.000128 ± 4.7e-05
6 | C16U C71A | 0.00166 ± 0.00032 | 298 ± 95 | 0.000186 ± 2.6e-05 | 0.00168 ± 0.0003 | 0.00113 ± 0.00027 | 0.00173 ± 0.00034 | 0.000667 ± 0.00016
7 | G29A A53G | 0.00571 ± 0.0021 | 3380 ± 1700 | 0.000136 ± 3.6e-05 | 0.000915 ± 0.00019 | 0.00162 ± 0.00059 | 0.00483 ± 0.00087 | 0.000249 ± 4.3e-05
